From patent US20220396635A1 (UNIVERSIT T STUTTGART, published 2022)
Like-named read-outs stand apart in the source and are kept apart here.

B1: scDb/Fab-Fc (1-1)+2, trivalent bispecific anti-HER3×anti-CD3 (bispecific antibody)
chain: QVQLQQSGPGLVKPSQTLSLTCAISGDSVSSNRAAWNWIRQSPSRGLEWLGRTYYRSKWYNDYAQSLKSRITINPDTPKNQFSLQLNSVTPEDTAVYYCARDGQLGLDALDIWGQGTMVTVSSGGGGSQAGLTQPPAVSVAPGQTASITCGRDNIGSRSVHWYQQKPGQAPVLVVYDDSDRPAGIPERFSGSNYENTATLTISRVEAGDEADYYCQVWGITSDHVVFGGGTKLTVLGGGGSGGGGSGGGGSQVQLQQSGPGLVKPSQTLSLTCAISGDSVSSNRAAWNWIRQSPSRGLEWLGRTYYRSKWYNDYAQSLKSRITINPDTPKNQFSLQLNSVTPEDTAVYYCARDGQLGLDALDIWGQGTMVTVSSGGGGSQAGLTQPPAVSVAPGQTASITCGRDNIGSRSVHWYQQKPGQAPVLVVYDDSDRPAGIPERFSGSNYENTATLTISRVEAGDEADYYCQVWGITSDHVVFGGGTKLTVLAAADKTHTCPPCPAPPVAGPSVFLFPPKPKDTLMISRTPEVTCVVVDVSHEDPEVKFNWYVDGVEVHNAKTKPREEQYNSTYRVVSVLTVLHQDWLNGKEYKCKVSNKGLPSSIEKTISKAKGQPREPQVCTLPPSRDELTKNQVSLSCAVKGFYPSDIAVEWESNGQPENNYKTTPPVLDSDGSFFLVSKLTVDKSRWQQGNVFSCSVMHEALHNHYTQKSLSLSPGK
heavy: QVQLVQSGAEVKKPGSSVKVSCKASGGTFSGYTMNWVRQAPGQGLEWMGLINPYKGVSTYNGKFKDRVTITADKSTSTAYMELSSLRSEDTAVYYCARSGYYGDSDWYFDVWGQGTLVTVSSASTKGPSVFPLAPSSKSTSGGTAALGCLVKDYFPEPVTVSWNSGALTSGVHTFPAVLQSSGLYSLSSVVTVPSSSLGTQTYICNVNHKPSNTKVDKKVEPKSCDKTHTCPPCPAPPVAGPSVFLFPPKPKDTLMISRTPEVTCVVVDVSHEDPEVKFNWYVDGVEVHNAKTKPREEQYNSTYRVVSVLTVLHQDWLNGKEYKCKVSNKGLPSSIEKTISKAKGQPREPQVYTLPPCRDELTKNQVSLWCLVKGFYPSDIAVEWESNGQPENNYKTTPPVLDSDGSFFLYSKLTVDKSRWQQGNVFSCSVMHEALHNHYTQKSLSLSPGK
light: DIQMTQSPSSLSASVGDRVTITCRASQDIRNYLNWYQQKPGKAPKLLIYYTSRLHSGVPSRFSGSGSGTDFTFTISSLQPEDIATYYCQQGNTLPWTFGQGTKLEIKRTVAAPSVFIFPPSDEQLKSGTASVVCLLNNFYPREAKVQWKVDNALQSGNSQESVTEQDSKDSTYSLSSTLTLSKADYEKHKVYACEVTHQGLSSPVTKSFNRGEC
notes: The scDb is monospecific for HER3; the CD3 site sits in the Fab arm; also called scDb3-43x3-43-Fc(hole)Δab + FdhuU3-Fc(knob)Δab + VLhuU3-CLK
B2: scDb/scFv-Fc (2-1)+1, trivalent bispecific anti-EGFRxanti-CD3 (bispecific antibody)
chain 1: QVQLVQSGAEVKKPGSSVKVSCKASGGTFSGYTMNWVRQAPGQGLEWMGLINPYKGVSTYNGKFKDRVTITADKSTSTAYMELSSLRSEDTAVYYCARSGYYGDSDWYFDVWGQGTLVTVSSGGGGSDIQLTQSPSFLSASVGDRVTITCRASQSIGTNIHWYQQKPGKAPKLLIKYASESISGVPSRFSGSGSGTEFTLTISSLQPEDFATYYCQQNNNWPTTFGAGTKLEIKRGGGGSGGGGSGGGGSEVQLVESGGGLVQPGGSLRLSCAASGFSLTNYGVHWVRQAPGKGLEWLGVIWSGGNTDYNTPFTSRFTISRDNSKNTLYLQMNSLRAEDTAVYYCARALTYYDYEFAYWGQGTTVTVSSGGGGSDIQMTQSPSSLSASVGDRVTITCRASQDIRNYLNWYQQKPGKAPKLLIYYTSRLHSGVPSRFSGSGSGTDFTFTISSLQPEDIATYYCQQGNTLPWTFGQGTKLEIKRAAADKTHTCPPCPAPPVAGPSVFLFPPKPKDTLMISRTPEVTCVVVDVSHEDPEVKFNWYVDGVEVHNAKTKPREEQYNSTYRVVSVLTVLHQDWLNGKEYKCKVSNKGLPSSIEKTISKAKGQPREPQVCTLPPSRDELTKNQVSLSCAVKGFYPSDIAVEWESNGQPENNYKTTPPVLDSDGSFFLVSKLTVDKSRWQQGNVFSCSVMHEALHNHYTQKSLSLSPGK
chain 2: EVQLVESGGGLVQPGGSLRLSCAASGFSLTNYGVHWVRQAPGKGLEWLGVIWSGGNTDYNTPFTSRFTISRDNSKNTLYLQMNSLRAEDTAVYYCARALTYYDYEFAYWGQGTTVTVSSGGGGSGGGGSGGGGSDIQLTQSPSFLSASVGDRVTITCRASQSIGTNIHWYQQKPGKAPKLLIKYASESISGVPSRFSGSGSGTEFTLTISSLQPEDFATYYCQQNNNWPTTFGAGTKLEIKRAAADKTHTCPPCPAPPVAGPSVFLFPPKPKDTLMISRTPEVTCVVVDVSHEDPEVKFNWYVDGVEVHNAKTKPREEQYNSTYRVVSVLTVLHQDWLNGKEYKCKVSNKGLPSSIEKTISKAKGQPREPQVYTLPPCRDELTKNQVSLWCLVKGFYPSDIAVEWESNGQPENNYKTTPPVLDSDGSFFLYSKLTVDKSRWQQGNVFSCSVMHEALHNHYTQKSLSLSPGK
notes: also called scDbhuU3xhu225-Fc(hole)Δab + scFvhu225-Fc(knob)Δab
B3: scDb/Fab-Fc (2-1)+1, trivalent bispecific anti-EGFRxanti-CD3 (bispecific antibody)
chain: QVQLVQSGAEVKKPGSSVKVSCKASGGTFSGYTMNWVRQAPGQGLEWMGLINPYKGVSTYNGKFKDRVTITADKSTSTAYMELSSLRSEDTAVYYCARSGYYGDSDWYFDVWGQGTLVTVSSGGGGSDIQLTQSPSFLSASVGDRVTITCRASQSIGTNIHWYQQKPGKAPKLLIKYASESISGVPSRFSGSGSGTEFTLTISSLQPEDFATYYCQQNNNWPTTFGAGTKLEIKRGGGGSGGGGSGGGGSEVQLVESGGGLVQPGGSLRLSCAASGFSLTNYGVHWVRQAPGKGLEWLGVIWSGGNTDYNTPFTSRFTISRDNSKNTLYLQMNSLRAEDTAVYYCARALTYYDYEFAYWGQGTTVTVSSGGGGSDIQMTQSPSSLSASVGDRVTITCRASQDIRNYLNWYQQKPGKAPKLLIYYTSRLHSGVPSRFSGSGSGTDFTFTISSLQPEDIATYYCQQGNTLPWTFGQGTKLEIKRAAADKTHTCPPCPAPPVAGPSVFLFPPKPKDTLMISRTPEVTCVVVDVSHEDPEVKFNWYVDGVEVHNAKTKPREEQYNSTYRVVSVLTVLHQDWLNGKEYKCKVSNKGLPSSIEKTISKAKGQPREPQVCTLPPSRDELTKNQVSLSCAVKGFYPSDIAVEWESNGQPENNYKTTPPVLDSDGSFFLVSKLTVDKSRWQQGNVFSCSVMHEALHNHYTQKSLSLSPGK
heavy: EVQLVESGGGLVQPGGSLRLSCAASGFSLTNYGVHWVRQAPGKGLEWLGVIWSGGNTDYNTPFTSRFTISRDNSKNTLYLQMNSLRAEDTAVYYCARALTYYDYEFAYWGQGTTVTVSSASTKGPSVFPLAPSSKSTSGGTAALGCLVKDYFPEPVTVSWNSGALTSGVHTFPAVLQSSGLYSLSSVVTVPSSSLGTQTYICNVNHKPSNTKVDKKVEPKSCGTDKTHTCPPCPAPPVAGPSVFLFPPKPKDTLMISRTPEVTCVVVDVSHEDPEVKFNWYVDGVEVHNAKTKPREEQYNSTYRVVSVLTVLHQDWLNGKEYKCKVSNKGLPSSIEKTISKAKGQPREPQVYTLPPCRDELTKNQVSLWCLVKGFYPSDIAVEWESNGQPENNYKTTPPVLDSDGSFFLYSKLTVDKSRWQQGNVFSCSVMHEALHNHYTQKSLSLSPGK
light: DIQLTQSPSFLSASVGDRVTITCRASQSIGTNIHWYQQKPGKAPKLLIKYASESISGVPSRFSGSGSGTEFTLTISSLQPEDFATYYCQQNNNWPTTFGAGTKLEIKRTVAAPSVFIFPPSDEQLKSGTASVVCLLNNFYPREAKVQWKVDNALQSGNSQESVTEQDSKDSTYSLSSTLTLSKADYEKHKVYACEVTHQGLSSPVTKSFNRGEC
notes: also called scDbhuU3xhu225-Fc(hole)Δab + Fdhu225-Fc(knob)Δab + VLhu225-CLκ

Columns and labels:
[1] = target: T1, HER3 (UniProt P21860 20-1342, limits assumed); assay: flow cytometry, serial dilution on MCF-7 cells (HER3-expressing), PE anti-human Fc detection
T1 construct: whole, on cells; the cell lines are human tumor lines
Method: (§1) Binding of trivalent, bispecific fusion proteins to HER3-expressing (LIM1215, MCF-7) and CD3-expressing (Jurkat) cell lines was analyzed by flow cytometry. 2×10⁵ cells/well were incubated with a serial dilution of trivalent, bispecific antibodies for 1 h at 4° C. followed by detection using a PE-conjugated anti-human Fc antibody (Jackson ImmunoResearch Laboratories Inc). […] Concerning binding to the CD3-expressing cell line Jurkat, the trivalent, bispecific antibodies in the (1-2)+1 and in the (2−1)+1 orientation bound with EC₅₀ values in the low nanomolar range.

[2] = target: T2, CD3 (UniProt P07766 23-207); assay: flow cytometry, serial dilution on Jurkat cells (CD3-expressing), PE anti-human Fc detection
T2 construct: whole, on cells; on cells it stands in the TCR/CD3 complex; also called CD3 on Jurkat cells
Method: as §1

[3] = target: T1, HER3; assay: flow cytometry, serial dilution on LIM1215 cells (HER3-expressing), PE anti-human Fc detection
Method: as §1

[4] = target: T3, EGFR (UniProt P00533 25-1210, limits assumed); assay: flow cytometry, serial dilution on T-47-D cells (EGFR-expressing), PE anti-human Fc detection
T3 construct: whole, on cells; the cell lines are human tumor lines
Method: (§2) Binding analysis of the trivalent, bispecific antibodies was performed by flow cytometry using tumor cell lines with different EGFR-expression levels (FIG. 20) (Table 12). Adherent cells were washed with PBS and shortly trypsinized at 37° C. Trypsin was quenched with FCS-containing medium and removed by centrifugation (500×g, 5 min.). Target cells (FaDu, LIM1215, SKBR-3, T-47-D, MCF-7 and Jurkat cells) at 1×10⁵ cells/well were incubated with a serial dilution of trivalent, bispecific antibodies for 1 h at 4° C. After removing excess of recombinant protein by washing with PBA (PBS, 2% FBS, and 0.02% sodium azide), bound protein was detected using PE-conjugated anti-human Fc mAb (Jackson ImmunoResearch Laboratories Inc). Fluorescence was measured using MACSquant VYB (Miltenyi Biotec) and data were analyzed using FlowJo (Tree Star). Relative median fluorescence intensities (MFI) were calculated as followed: relative MFI=((MFIₛₐₘₚₗₑ-(MFIdetection-MFIcells))/MFIcells).

[5] = target: T2, CD3; assay: flow cytometry, serial dilution on Jurkat cells (CD3-expressing), PE anti-human Fc detection; remark: listed apart in the source
Method: as §2

[6] = target: T3, EGFR; assay: flow cytometry, serial dilution on MCF-7 cells (EGFR-expressing), PE anti-human Fc detection
Method: as §2

[7] = target: T3, EGFR; assay: flow cytometry, serial dilution on FaDu cells (EGFR-expressing), PE anti-human Fc detection
Method: as §2

[8] = target: T3, EGFR; assay: cell-based or functional assay
[9] = target: T3, EGFR; assay: flow cytometry, serial dilution on SKBR-3 cells (EGFR-expressing), PE anti-human Fc detection
Method: as §2

[10] = target: T3, EGFR; assay: flow cytometry, serial dilution on LIM1215 cells (EGFR-expressing), PE anti-human Fc detection
Method: as §2

Binder | EC50 [1] | EC50 [2] | EC50 [3] | EC50 [4] | EC50 [5] | EC50 [6] | EC50 [7] | EC50 of PBMC cytotoxicity on FaDu cells, E:T 5:1 [8] | EC50 of PBMC cytotoxicity on SKBR-3 cells, E:T 5:1 [8] | EC50 [9] | EC50 [10]
B1 | 700 pM | 8700 pM | 249 pM |  |  |  |  |  |  |  | 
B2 |  |  |  | 100 pM | 16300 pM | 100 pM | 700 pM | 27 pM | 277 pM | 100 pM | 200 pM
B3 |  |  |  | 30 pM | 1400 pM | 30 pM | 200 pM | 56 pM | 209 pM | 100 pM | 200 pM
